Data from paper PMC6281772.

Biological target: tropomyosin of native porcine cardiac thin filaments (porcine (endogenous in pig heart)) (UniProt P42639)
Assay: cryo-EM structure

frequency of segments with C1 in the C1-S position (C1 tethers actin and Tm): 36%
Substance: C0C1 fragment of human cardiac myosin binding protein-C (C0-PA-C1) (domain or fragment)
